Reference: patent publication US20210332115A1 (Sanofi, published 2021)

B1: VH6/Vκ7-IgG4v2 (antibody)
heavy: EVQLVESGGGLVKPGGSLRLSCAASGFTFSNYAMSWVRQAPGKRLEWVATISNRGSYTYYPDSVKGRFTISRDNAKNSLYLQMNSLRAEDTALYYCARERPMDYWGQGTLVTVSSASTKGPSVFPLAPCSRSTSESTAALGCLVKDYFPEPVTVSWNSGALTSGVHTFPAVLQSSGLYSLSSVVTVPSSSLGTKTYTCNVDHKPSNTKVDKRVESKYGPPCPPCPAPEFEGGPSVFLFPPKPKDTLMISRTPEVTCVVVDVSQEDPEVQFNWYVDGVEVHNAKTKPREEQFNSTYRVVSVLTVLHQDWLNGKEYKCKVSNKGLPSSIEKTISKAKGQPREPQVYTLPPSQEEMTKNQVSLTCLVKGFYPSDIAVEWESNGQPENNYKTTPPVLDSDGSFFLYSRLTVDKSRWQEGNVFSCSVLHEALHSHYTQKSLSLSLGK
light: DIQMTQSPSTLSASVGDRVTITCKASQDVGTAVAWYQQKPGKAPKLLIYWASTRHTGVPDRFSGSGSGTDFTLTISSLQAEDFAVYFCHQHSSNPLTFGQGTKLEIKRTVAAPSVFIFPPSDEQLKSGTASVVCLLNNFYPREAKVQWKVDNALQSGNSQESVTEQDSKDSTYSLSSTLTLSKADYEKHKVYACEVTHQGLSSPVTKSFNRGEC
notes: also called VH6/VK7-IgG4v2; VH6/VK7-IgG4v2_HEK
B2: VH0/Vκ0 (Chimeric) (antibody, V domains shown)
VH: EVQLVESGGALVKPGGSLKLSCAASGFTFSNYAMSWVRQTPEKRLEWVATISNRGSYTYYPDSVKGRFTISRDNAKNTLYLQMSSLRSEDTALYYCARERPMDYWGQGTSVTVSS
VL: DIVMTQSHKFMSTSVGDRVSITCKASQDVGTAVAWYQQKPGQSPKLLIYWASTRHTGVPDRFTGSGSGTDFTLTITNVQSEDLAVYFCHQHSSNPLTFGAGTKLELK
notes: also called chimeric antibody

Legend:
[1] = molecular target: T1, Homo sapiens factor Bb protein (human, UniProt P00751 260-764); test: SPR single cycle kinetics, antibody on Protein A chip, antigen analyte
T1 construct: Bought from CompTech (A155); also called complement factor Bb; human factor Bb
T1 sequence (P00751 260-764 limits assumed): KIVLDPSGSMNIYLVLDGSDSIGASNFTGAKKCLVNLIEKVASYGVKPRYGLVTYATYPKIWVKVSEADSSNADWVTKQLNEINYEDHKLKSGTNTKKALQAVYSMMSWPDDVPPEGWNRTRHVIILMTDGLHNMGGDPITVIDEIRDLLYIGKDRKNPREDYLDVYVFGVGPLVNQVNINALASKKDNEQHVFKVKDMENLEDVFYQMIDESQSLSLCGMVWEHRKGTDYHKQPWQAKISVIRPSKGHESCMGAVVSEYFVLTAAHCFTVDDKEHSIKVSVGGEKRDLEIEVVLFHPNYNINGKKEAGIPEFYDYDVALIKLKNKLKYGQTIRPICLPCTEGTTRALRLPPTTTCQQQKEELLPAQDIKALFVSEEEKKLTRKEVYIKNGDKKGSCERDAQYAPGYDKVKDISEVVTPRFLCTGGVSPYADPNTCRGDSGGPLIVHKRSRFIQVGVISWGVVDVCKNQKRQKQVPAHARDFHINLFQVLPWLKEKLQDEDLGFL
Experimental: The ability of VH4/VK6 and VH6/VK7 to bind to zymogen factor B and factor Bb from both human and cynomolgus monkey was determined by surface plasmon resonance using a Biacore T200. Human factor B and factor Bb were purchased from Comptech and cynomolgus monkey factor B and factor Bb were purified in-house. Briefly, the monoclonal antibodies were captured on a Biacore Series S Protein A chip in HBSP+ (10 mM HEPES, 150 mM NaCl, 0.05% P20 pH 7.4) at a flow rate of 30 μL/min. A five-point concentration series of each analyte was tested for binding using single cycle kinetics with a contact time of 180 seconds per concentration followed by a 600 sec dissociation at 25° C. and a flow rate of […]. Both human and cynomolgus monkey factor B started at a concentration of 500 nM followed by 2-fold dilutions, while human and cynomolgus monkey factor Bb started at concentrations of 30 nM and 150 nM, respectively, followed by 2-fold dilutions. Data were analyzed using the Biacore evaluation software using a 1:1 binding model. […] Binding to human or cynomolgus monkey factor B was barely detectable and the small signal that was observed was dominated by non-specific binding.

[2] = molecular target: T1, Homo sapiens factor Bb protein; test: competition ELISA on coated factor Bb; competitor murine parental antibody
Experimental: Factor Bb was diluted in 1× PBS to 1.0 μg/ml and 100 μl/well was coated overnight at 4° C. on a 96-well ELISA plate. The following day the plates were blocked for two hours at room temperature with 1% casein/PBS before washing 2× with PBS pH 7.4. In a 96-well dilution plate a fixed concentration of murine parental antibody (0.5 μg/ml, final concentration) was added in equal volume to a four-fold titration series of test antibody (starting from 45 μg/ml to 0.01 μg/ml, final concentration) diluted in blocking buffer. After washing the plate 3× with PBS-T, 100 μl of chimeric/test antibody mix was added to the ELISA plate. After incubating at room temperature for one hour, the plate was washed 3× with PBS-T and 100 μl of anti-mouse IgG Fc-Specific HRP (Sigma, Dorset, UK) diluted 1:1000 in PBS-T was applied for one hour at room temperature to detect bound mouse antibody. For color development, the plate was washed 3× with PBS-T following which 100 μl of TMB substrate was added and incubated for approximately five minutes at room temperature. The reaction was stopped with 50 μl of 3.0 M hydrochloric acid and absorbance was read immediately using a DYNEX ® plate reader at 450 nm.
IC50 values were calculated for each variant and relative IC50 values were calculated by dividing the IC50 of the humanized variant by that of the chimeric antibody assayed on the same plate (Table 11).

[3] = molecular target: T1, Homo sapiens factor Bb protein; test: SPR multi-cycle kinetics; ratio against VH0/Vκ0 on the same chip
Experimental: Antibodies were diluted in running buffer to a final concentration of 0.5 μg/ml. At the start of each cycle, antibodies were loaded onto Fc2, Fc3 and Fc4 of the Protein A chip (GE Healthcare, Little Chalfont, UK). IgGs were captured at a flow rate of 10 μl/min to give an immobilisation level (RL) of ˜63 RU, the theoretical value to obtain an Rmax of ˜50 RU. The surface was then allowed to stabilize. Kinetic data was obtained with factor Bb as analyte and using a flow rate of 30 μl/min to minimize any potential mass transfer effects. Multiple repeats of a blank and a repeat of a single concentration of the analyte were programmed into the kinetic run in order to check the stability of both the surface and analyte over the kinetic cycles. For kinetic analysis, a two-fold dilution range was selected from 12. 5 nM to 0. 391 nM factor Bb. The association phase of factor Bb was monitored for 360 seconds and the dissociation phase was monitored for 600 seconds. Regeneration of the Protein A surface was conducted using two injections of 10 mM glycine-HCL pH 1. 5. The signal from the reference channel Fc1 was subtracted from that of Fc2, Fc3 and Fc4 to correct for differences in non-specific binding to a reference surface, and a global Rmax parameter was used in the 1-to-1 binding model.
The sensorgrams and fitted data for the binding of chimeric antibodies and humanized variants to factor Bb are shown in FIGS. 4A-4C. The relative KD was calculated by dividing the KD of the humanized variants by that of the chimeric antibody on the same chip. The kinetic parameters measured for the interaction of factor Bb with chimeric antibodies and humanized variants are shown in Table 10.

[4] = molecular target: T1, Homo sapiens factor Bb protein; test: SPR single cycle kinetics; ratio against VH0/Vκ0
Experimental: All single cycle kinetic experiments were run at 25° C. with HBS-P+running buffer (pH 7. 4) (GE Healthcare, Little Chalfont, UK).
Antibodies were diluted in running buffer to a final concentration of 1 μg/ml, based on concentrations assessed by ELISA titer. At the start of each cycle, antibodies were loaded onto Fc2, Fc3 and Fc4 of the Protein A chip (GE Healthcare, Little Chalfont, UK). IgGs were captured at a flow rate of 10 μl/min to give an immobilization level (RL) of ˜63 RU, the theoretical value to obtain an Rmax of ˜50 RU. The surface was then allowed to stabilize. Single cycle kinetic data was obtained with factor Bb (CompTech, Tyler, USA) as the analyte at a flow rate of 30 μl/min to minimize any potential mass transport limitations. Multiple repeats with the reference chimeric antibody were performed to check the stability of the surface and analyte over the kinetic cycles. The signal from the reference channel Fc1 (no antibody) was subtracted from that of Fc2, Fc3 and Fc4 to correct for differences in non-specific binding to a reference surface. A four point, two-fold dilution range from 0. 78 nM to 6. 25 nM factor Bb without regeneration between each concentration was used. The association phase for the four injections of increasing concentrations of factor Bb was monitored for 200 seconds each time and a single dissociation phase was measured for 200 seconds following the last injection of factor Bb. Regeneration of the Protein A surface was conducted using two injections of 10 mM glycine-HCL pH 1. 5.
Single cycle kinetics using cell culture supernatants were performed as described above. […] The relative KD was calculated by dividing the KD of the VH0/Vκ0 reference antibody by that of the humanized variant assayed in the same experiment.

[5] = molecular target: T1, Homo sapiens factor Bb protein; test: BLI Octet, biotinylated antibody on SA biosensors
Experimental: Briefly, biotinylated antibodies were loaded onto SA Biosensors equilibrated in PBS, 0.1% BSA, 0.02% Tween-20 (assay buffer). After a 60 second baseline in assay buffer, antibodies were loaded onto the probes for 180 seconds, followed by another 60 second baseline. Association to human (Comptech) or cynomolgus monkey factor Bb (purified in-house) was measured for 300 seconds, followed by a 300 second dissociation. Kinetic parameters were calculated by the Octet Analysis software using a 1:1 binding model.

Row | Binder | Kd [1] | koff [1] | kon [1] | IC50 [2] | Relative KD [3] | Relative KD [4] | Kd [5]
1 | B1 | 5.92 nM | 0.00138 s⁻¹ | 232000 M⁻¹ s⁻¹ |  |  |  | 
2 | B2 |  |  |  | 1.23 nM | 1 | 1 | 2 nM
